Data from the RNAGym collection of RNA variant scans (doi:10.7554/elife.80360).

B1: Twister Ribozyme (parent)
chain: AACACUGCCAAUGCCGGUCCCAAGCCCGGAUAAAAGUGGAGGGGGCGG

Variants of: B1
Assay: self-cleavage, relative activity (ratio to wild type); higher = more cleavage; co-transcriptional

**Q.** Which self-cleavage does the source give for AACACUGCCAAUGCCGGGCCCAAGCCCGGAUAAAAGUGGAGGGAGCGG here?
**A.** 0.0959

**Q.** With AACACUGCCAAUGCCGGUACCAACCCCGGAUAAAAGUGGAGGGGGCGG as the variant, how does the self-cleavage read?
**A.** 0.0773

**Q.** Which self-cleavage does the source give for AACACUGCCAAUGCCGGUACCAAGCCCGGAUAAAACUGGAGGGGGCGG here?
**A.** 0.0909

**Q.** For AACACUGCCAAUGCCGGUACCAAGCCCGGAUAAAAUUGGAGGGGGCGG, which self-cleavage is on record?
**A.** 0.0959

**Q.** With AACACUGCCAAUGCCGGGCCCAAGCCCGGAUAAAAGUGGAGUGGGCGG as the variant, how does the self-cleavage read?
**A.** 0.0585

**Q.** With AACACUGCCAAUGCCGGUAGCAAGCCCGGAUAAAAGUGGAGGGGGCGG as the variant, how does the self-cleavage read?
**A.** 0.093

**Q.** Which self-cleavage does the source give for AACACUGCCAAUGCCGGUAUCAAGCCCGGAUAAAAGUGGAGGGGGCGG here?
**A.** 0.0818

**Q.** For AACACUGCCAAUGCCGGUAACAAGCCCGGAUAAAAGUGGAGGGGGCGG, which self-cleavage is on record?
**A.** 0.0769

**Q.** For AACACUGCCAAUGCCGGUACCAAGCCCGGAUAAAAGUGUAGGGGGCGG, which self-cleavage is on record?
**A.** 0.124

**Q.** For AACACUGCCAAUGCCGGUACCAAGCCCCGAUAAAAGUGGAGGGGGCGG, which self-cleavage is on record?
**A.** 0.135

**Q.** For AACACUGCCAAUGCCGGUACCAAGCCCAGAUAAAAGUGGAGGGGGCGG, which self-cleavage is on record?
**A.** 0.184

**Q.** With AACACUGCCAAUGCCGGUACCAAGCCCGGAUAAAAGUGGAGGAGGCGG as the variant, how does the self-cleavage read?
**A.** 0.355

**Q.** For AACACUGCCAAUGCCGGUACCAAGCCCGGAUAAAAGUGGAGGUGGCGG, which self-cleavage is on record?
**A.** 0.732

**Q.** Which self-cleavage does the source give for AACACUGCCAAUGCCGGUACGAAGCCCGGAUAAAAGUGGAGGGGGCGG here?
**A.** 0.0812

**Q.** With AACACUGCCAAUGCCGGUACAAAGCCCGGAUAAAAGUGGAGGGGGCGG as the variant, how does the self-cleavage read?
**A.** 0.0702

**Q.** With AACACUGCCAAUGCCGGUACCAAGCCCGGAUAAAAGUGGAAGGGGCGG as the variant, how does the self-cleavage read?
**A.** 0.0916

**Q.** With AACACUGCCAAUGCCGGGCCCAAGCCCGGAUAAAAGUGGAGGGGGCCG as the variant, how does the self-cleavage read?
**A.** 0.0806

**Q.** For AACACUGCCAAUGCCGGUACCAAGCCCGGAUGAAAGUGGAGGGGGCGG, which self-cleavage is on record?
**A.** 0.177

**Q.** For AACACUGCCAAUGCCGGUACCAAGCCCGGAUAAAAGUGGAGGGCGCGG, which self-cleavage is on record?
**A.** 0.746

**Q.** For AACACUGCCAAUGCCGGUACCAAGCCCGGAUAAAAGUGGAGGGUGCGG, which self-cleavage is on record?
**A.** 0.679

**Q.** With AACACUGCCAAUGCCGGUACCAAGCCCGGAUAAGAGUGGAGGGGGCGG as the variant, how does the self-cleavage read?
**A.** 0.101

**Q.** For AACACUGCCAAUGCCGGUACCAAGCCCGGAUAACAGUGGAGGGGGCGG, which self-cleavage is on record?
**A.** 0.0755

**Q.** With AACACUGCCAAUGCCGGUACCAAGCCCGGAUAAAAGUGGGGGGGGCGG as the variant, how does the self-cleavage read?
**A.** 0.124

**Q.** With AACACUGCCAAUGCCGGUACCAAGCCUGGAUAAAAGUGGAGGGGGCGG as the variant, how does the self-cleavage read?
**A.** 0.0993

**Q.** Which self-cleavage does the source give for AACACUGCCAAUGCCGGUACCAUGCCCGGAUAAAAGUGGAGGGGGCGG here?
**A.** 0.114

**Q.** For AACACUGCCAAUGCCGGUACCAGGCCCGGAUAAAAGUGGAGGGGGCGG, which self-cleavage is on record?
**A.** 0.0964

**Q.** Which self-cleavage does the source give for AACACUGCCAAUGCCGGGCCCAAGCCCGGAUAAAAGUGGAGGUGGCGG here?
**A.** 0.0664

**Q.** With AACACUGCCAAUGCCGGUACCAAGCCCGGAUAAAAGUGGAGGGGGCUG as the variant, how does the self-cleavage read?
**A.** 0.131

**Q.** With AACACUGCCAAUGCCGGUACCAAGCCCGCAUAAAAGUGGAGGGGGCGG as the variant, how does the self-cleavage read?
**A.** 0.0998

**Q.** With AACACUGCCAAUGCCGGUACCAAGCCCGUAUAAAAGUGGAGGGGGCGG as the variant, how does the self-cleavage read?
**A.** 0.207

**Q.** For AACACUGCCAAUGCCGGUACCAAGUCCGGAUAAAAGUGGAGGGGGCGG, which self-cleavage is on record?
**A.** 0.0834

**Q.** Which self-cleavage does the source give for AACACUGCCAAUGCCGGUACCAAGCCCGGAUAAAAGUGGAGGGGCCGG here?
**A.** 0.233

**Q.** Which self-cleavage does the source give for AACACUGCCAAUGCCGGUACCAAGCCCGGCUAAAAGUGGAGGGGGCGG here?
**A.** 0.124

**Q.** For AACACUGCCAAUGCCGGUACCAAGCCCGGAUAAAAGUGGAGGGGGCGG, which self-cleavage is on record?
**A.** 0.384

**Q.** For AACACUGCCAAUGCCGGUACCAAGCCCGGAAAAAAGUGGAGGGGGCGG, which self-cleavage is on record?
**A.** 0.219

**Q.** For AACACUGCCAAUGCCGGUACCAAGCCCGGACAAAAGUGGAGGGGGCGG, which self-cleavage is on record?
**A.** 0.375

**Q.** With AACACUGCCAAUGCCGGUACCAAGCACGGAUAAAAGUGGAGGGGGCGG as the variant, how does the self-cleavage read?
**A.** 0.0793

**Q.** Which self-cleavage does the source give for AACACUGCCAAUGCCGGUACCAAGCGCGGAUAAAAGUGGAGGGGGCGG here?
**A.** 0.0718

**Q.** For AACACUGCCAAUGCCGGUACCAAGCCCGGAUAAAAGUCGAGGGGGCGG, which self-cleavage is on record?
**A.** 0.0851

**Q.** Which self-cleavage does the source give for AACACUGCCAAUGCCGGGCCCAAGCCCGGAUAAAAGUGGAGGGGCCGG here?
**A.** 0.0995

**Q.** For AACACUGCCAAUGCCGGGCCCAAGCCCGGAUAAAAGUGGAGGGGACGG, which self-cleavage is on record?
**A.** 0.0963

**Q.** For AACACUGCCAAUGCCGGGCCCAAGCCCGGAUAAAAGUGGAGGGGUCGG, which self-cleavage is on record?
**A.** 0.0852

**Q.** Which self-cleavage does the source give for AACACUGCCAAUGCCGGUACCGAGCCCGGAUAAAAGUGGAGGGGGCGG here?
**A.** 0.0827

**Q.** For AACACUGCCAAUGCCGGGCCCAAGCCCGGAUAAAAGGGGAGGGGGCGG, which self-cleavage is on record?
**A.** 0.0758

**Q.** For AACACUGCCAAUGCCGGGCCCAAGCCCGGAUAAAAGAGGAGGGGGCGG, which self-cleavage is on record?
**A.** 0.063

**Q.** With AACACUGCCAAUGCCGGUACCAAGCCCGGAUAAAAGUGGAGGGGGCGA as the variant, how does the self-cleavage read?
**A.** 0.161

**Q.** For AACACUGCCAAUGCCGGUACCAAGCCCGGAUAAAAGUGGAGGGGGCGC, which self-cleavage is on record?
**A.** 0.149

**Q.** Which self-cleavage does the source give for AACACUGCCAAUGCCGGUACCAAGCCCGGAUAGAAGUGGAGGGGGCGG here?
**A.** 0.155

**Q.** With AACACUGCCAAUGCCGGUACCAAGCCCGGAUAAAAGUGGAGGGGGUGG as the variant, how does the self-cleavage read?
**A.** 0.304

**Q.** Which self-cleavage does the source give for AACACUGCCAAUGCCGGUACCAAGCCCGGAUAAAAGUGGAGGGGGGGG here?
**A.** 0.177

**Q.** With AACACUGCCAAUGCCGGUACCAAGCCCGGAUAAACGUGGAGGGGGCGG as the variant, how does the self-cleavage read?
**A.** 0.313

**Q.** Which self-cleavage does the source give for AACACUGCCAAUGCCGGUACCAAGCCCGGAUAAAUGUGGAGGGGGCGG here?
**A.** 0.29

**Q.** For AACACUGCCAAUGCCGGGCCCAAGCCCGGAUAAAAGUGGAGGGGGCGC, which self-cleavage is on record?
**A.** 0.111

**Q.** Which self-cleavage does the source give for AACACUGCCAAUGCCGGGCCCAAGCCCGGAUAAAAGUGGAGGGGGCGA here?
**A.** 0.0606
